{"source": "paper PMC8643667", "about": "“TRF2 promotes dynamic and stepwise looping of POT1 bound telomeric overhang”", "binders": {"B1": {"name": "T6(TTAGGG)2T6 overhang (mixed)", "DNA 1": "TGGCGACGGCAGCGAGGCTTTTTTTTAGGGTTAGGGTTTTTT", "DNA 2": "GCCTCGCTGCCGTCGCCA"}}, "target": "T1, POT1 (human, UniProt Q9NUX5 1-634)", "T1 sequence": "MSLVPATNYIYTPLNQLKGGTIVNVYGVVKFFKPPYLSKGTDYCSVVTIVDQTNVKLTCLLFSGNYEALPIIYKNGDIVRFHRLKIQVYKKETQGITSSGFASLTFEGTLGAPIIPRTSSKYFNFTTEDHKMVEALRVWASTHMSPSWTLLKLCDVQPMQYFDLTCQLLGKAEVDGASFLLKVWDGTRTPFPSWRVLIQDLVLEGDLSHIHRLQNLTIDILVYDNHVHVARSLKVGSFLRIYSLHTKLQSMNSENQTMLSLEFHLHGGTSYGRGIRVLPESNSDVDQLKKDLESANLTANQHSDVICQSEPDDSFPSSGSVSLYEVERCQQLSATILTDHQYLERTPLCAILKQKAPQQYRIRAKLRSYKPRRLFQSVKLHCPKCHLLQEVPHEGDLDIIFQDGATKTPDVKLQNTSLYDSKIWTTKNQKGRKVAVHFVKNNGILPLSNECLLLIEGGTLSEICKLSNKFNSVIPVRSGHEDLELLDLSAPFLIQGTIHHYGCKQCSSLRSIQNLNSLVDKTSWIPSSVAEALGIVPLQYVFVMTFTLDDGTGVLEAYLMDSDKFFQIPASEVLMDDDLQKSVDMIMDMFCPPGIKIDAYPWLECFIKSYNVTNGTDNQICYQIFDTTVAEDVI", "experiment": "smFRET; FRET to 0.45; 10 mM Tris-HCl pH 7.5, 100 mM NaCl, 10% glycerol, oxygen scavenging system (trolox, glucose, glucose oxidase, catalase), ~23 C", "details": "protein: recombinant; label: 3'Cy3 strand 1; Cy5 and 3'biotin strand 2; 3' overhang 24 nt; 18 bp duplex"}
{"binder": "B1", "values": [{"measurement": "binding result", "result": "binds"}]}
